The test system of the data set is ATP. The data set is described as follows: switch fluorescence ratio, 500 uM ATP over buffer (Cy3 cluster intensity, sum of 5 cycles each) (fold (ratio)); higher = stronger signal-on switching upon ATP binding; sequences stand for … in TCGTCGGCAGCGTCAGATGTGTATAAGAGACAGTTTTTTTTTTTTTTTTTTTTTTTTT…TC. The settings on record: aptamer strand: ATP DNA aptamer (quencher-CACCTGGGGGAGTATTGCGGAGGAAGG + anchor), 100 nM annealed; ATP concentration: 500 uM. The method in brief: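 Cy3-labelled switching-strand clusters on a modified Illumina MiSeq flow-cell were annealed to 100 nM quencher-labelled ATP aptamer, imaged in selection buffer, then imaged after 15 min with 500 uM ATP at 22 °C. Five buffer/ATP cycles ran, with NaOH stripping and re-annealing between them. The fluorescence ratio is summed target-cycle over summed buffer-cycle Cy3 intensity per cluster, averaged per switch-domain sequence. Clusters outside 100-1000 RFU were excluded.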

± gives the standard deviation of the averaged measurements.
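Further: ATP exposure 15 min at 22 °C before imaging.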

Take GAAGGAGTGG: the switch fluorescence ratio stood at 1.027 ± 0.01.

Consider CATTGGGTGC, for which the switch fluorescence ratio is 1.0458 ± 0.00093.

AATTAGACGT: the switch fluorescence ratio was determined as 0.988 ± 0.015.

For the sequence TCTGGGGCTT, the switch fluorescence ratio was 1.0237 ± 0.00017.

On to TATTTGATGC, for which the switch fluorescence ratio stood at 1.02 ± 0.036.

In the case of GCTGGCGTCA, the switch fluorescence ratio was determined as 1 ± 0.05.

For ATTAAACAG, the switch fluorescence ratio is 1.05 ± 0.07.

Take ATTGTTACGT: the switch fluorescence ratio worked out at 0.998 ± 0.012.

With GGTTGGTGTG, the switch fluorescence ratio came out at 0.967 ± 0.023.

With TTATATATCA, the switch fluorescence ratio is 1.01 ± 0.013.

Take GAAAGGGGAT: the switch fluorescence ratio is 0.99 ± 0.018.

As for ATGTGTTACA, the switch fluorescence ratio came to 1.01 ± 0.03.

AGATTGGGCA: the switch fluorescence ratio was 0.981 ± 0.011.

As for TGGTAATATA, the switch fluorescence ratio amounted to 1.02 ± 0.024.

For ACCGGAGTTC, the switch fluorescence ratio was 1.23 ± 0.014.

As to TTTTCACTGG, the switch fluorescence ratio came out at 1.01 ± 0.017.

Consider TGGTAGGGTG, for which the switch fluorescence ratio was 1.01 ± 0.034.

Regarding GCGTGATGCC, the switch fluorescence ratio turned out to be 1.03 ± 0.075.

On to GCCGAGGTGA, for which the switch fluorescence ratio turned out to be 1.09 ± 0.13.

Turning to TTTTCGTGTT, the switch fluorescence ratio was 1 ± 0.032.

TACCGGGGC: the switch fluorescence ratio amounted to 1.06 ± 0.033.

As to TAGGGGCAGC, the switch fluorescence ratio was 1.01 ± 0.0054.

Regarding TGGTACGGGG, the switch fluorescence ratio came to 1.02 ± 0.033.

Turning to GCATCTCAGC, the switch fluorescence ratio is 0.991 ± 0.038.

On to CGGTTTATTG, for which the switch fluorescence ratio worked out at 1 ± 0.036.

In the case of CTCCGATGAT, the switch fluorescence ratio came out at 3.03 ± 0.62.

Turning to GGGAGATTAG, the switch fluorescence ratio was determined as 0.979 ± 0.015.

For GTATTTCCGG, the switch fluorescence ratio amounted to 0.9965 ± 0.0056.

On to AGCTGAAGCC, for which the switch fluorescence ratio worked out at 1.03 ± 0.028.

As for AATGGTGGTC, the switch fluorescence ratio amounted to 0.998 ± 0.012.

Turning to TGGATCAGTG, the switch fluorescence ratio came to 0.993 ± 0.046.

GCGAAATGTG: the switch fluorescence ratio came to 1.03 ± 0.013.

GGGTAGCTTG: the switch fluorescence ratio amounted to 0.989 ± 0.03.

On to AAAAGACGGG, for which the switch fluorescence ratio came to 1.03 ± 0.022.

Turning to AAGTCCCTTC, the switch fluorescence ratio was 1.01 ± 0.035.

Regarding TCACTATACA, the switch fluorescence ratio was 1.315 ± 0.0077.

As for CCAGGGACGA, the switch fluorescence ratio stood at 1.02 ± 0.024.

On to GGTTGCGGCA, for which the switch fluorescence ratio is 1.01 ± 0.041.

As for GAAGTCCAGA, the switch fluorescence ratio came to 1.01 ± 0.07.

As for CCGGAAACCA, the switch fluorescence ratio was 1.01 ± 0.021.

As for ATTAGGATGT, the switch fluorescence ratio worked out at 0.9948 ± 0.0027.

In the case of ACTTAAGTAG, the switch fluorescence ratio was found to be 0.987 ± 0.04.

With TGTGGGTTCC, the switch fluorescence ratio is 1.06 ± 0.11.

Take CGTAACTGGT: the switch fluorescence ratio is 0.978 ± 0.018.

Regarding TAACCAGTTA, the switch fluorescence ratio was 1.04 ± 0.019.

On to CTTAAAGTAT, for which the switch fluorescence ratio was determined as 0.9977 ± 0.0024.

For GAATAGTCAG, the switch fluorescence ratio came to 0.978 ± 0.033.

With AAAGCACTAG, the switch fluorescence ratio was determined as 1.11 ± 0.055.

As for GGACCGGGGT, the switch fluorescence ratio worked out at 0.966 ± 0.034.

Consider ATTTCGCCCG, for which the switch fluorescence ratio worked out at 1.07 ± 0.037.

In the case of GTGCTAACGG, the switch fluorescence ratio worked out at 0.9633 ± 0.0069.

As to TGTGGGCAGT, the switch fluorescence ratio was 1.02 ± 0.03.

For TTAAGGATA, the switch fluorescence ratio is 1.01 ± 0.036.

With GCAGGGTTCT, the switch fluorescence ratio came to 0.9721 ± 0.0021.

Take TGAGTGATTT: the switch fluorescence ratio was determined as 1.02 ± 0.031.

As for GGTTTTGACA, the switch fluorescence ratio is 0.9941 ± 0.0065.

For the sequence TTTGGAAAAA, the switch fluorescence ratio was 0.996 ± 0.032.

With GATAGTGC, the switch fluorescence ratio came to 1.06 ± 0.078.

Regarding GGGTTAGCTG, the switch fluorescence ratio is 1.01 ± 0.081.

For the sequence TACCATTTAG, the switch fluorescence ratio came out at 0.997 ± 0.025.

Turning to TACGATACTC, the switch fluorescence ratio is 1.62 ± 0.026.

For GAGTTTTTGG, the switch fluorescence ratio came to 0.973 ± 0.015.

AGGGCGTTGT: the switch fluorescence ratio was determined as 0.969 ± 0.035.

Regarding GTCGATATTT, the switch fluorescence ratio came out at 1.01 ± 0.026.

Take AGCCGGGGGA: the switch fluorescence ratio amounted to 1.05 ± 0.071.

As for GTGGTGTACT, the switch fluorescence ratio came to 0.985 ± 0.0081.

For the sequence GTTGGGGGGG, the switch fluorescence ratio is 1.01 ± 0.03.

As for CTGTCTGTGC, the switch fluorescence ratio turned out to be 1.09 ± 0.044.

In the case of ATACTTACCG, the switch fluorescence ratio was 1.223 ± 0.0077.

On to TACGGGGGGG, for which the switch fluorescence ratio was found to be 1.07 ± 0.074.

As to GGTAGTTCCT, the switch fluorescence ratio was determined as 1.02 ± 0.013.

TTTTGGTCCG: the switch fluorescence ratio is 1.034 ± 0.0074.

In the case of TACGCGATTT, the switch fluorescence ratio is 1.09 ± 0.08.

Turning to TTTGGTTGAA, the switch fluorescence ratio is 1.03 ± 0.088.

For the sequence TTTTTTTACC, the switch fluorescence ratio amounted to 1.01 ± 0.021.

Take TAAGAAGTCT: the switch fluorescence ratio turned out to be 1.04 ± 0.048.

Regarding TTGGGTGATC, the switch fluorescence ratio stood at 1.01 ± 0.049.

TAAAGGTGAA: the switch fluorescence ratio came out at 1.077 ± 0.0066.

Consider AGATTTTCGC, for which the switch fluorescence ratio stood at 1 ± 0.0091.

Source of the values: the supplement of paper PMC10126150.
